We go through one molecule from patent JP2018058812A.

In the assay the target is バキュロウイルスを用いて作製したFlagタグ融合インフルエンザウィルスH1N1由来のリコンビナントヌクレオプロテイン(NP)タンパク質 (influenza A virus H1N1).

B1: 配列番号:08により表されるアミノ酸配列からなるVHH抗体 (VHH)
VHH: QVQLVESGGGLVQAGGSLRLSCAASRTIFNPNVMGWYRQAPGKQRELVADISLSGSTNYADSVKGRFTISRDNAKNTMYLQMNSLKPEDTAVYYCNTNAISGAPGRYWGQGTQVTVSS
The Kd is a measure of binding affinity in units of concentration. Low values mean higher affinity, high ones lower affinity. Molecule B1 gave a dissociation constant Kd of 236 pM.
